Measured values reported in paper PMC9482650, “Quantitative fragmentomics allow affinity mapping of interactomes” (Nature Communications, 2022).

Legend:
Experiment in all cases: holdup assay
Design in all cases: key: below the threshold = too weak to quantify, mostly under pKd 3.1 to 4
[1] = target: T1, CARD11, Q9BXL7
T1 sequence (Q9BXL7 662-765, limits assumed, looked up): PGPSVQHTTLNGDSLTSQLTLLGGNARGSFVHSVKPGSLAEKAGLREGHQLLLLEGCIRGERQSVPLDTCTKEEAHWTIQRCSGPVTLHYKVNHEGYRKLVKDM

[2] = target: T2, APBA3_1, O96018
T2 sequence (O96018 389-490, limits assumed, looked up): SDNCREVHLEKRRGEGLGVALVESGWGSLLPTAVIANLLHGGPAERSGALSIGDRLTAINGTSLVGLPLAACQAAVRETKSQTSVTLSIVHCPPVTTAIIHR

[3] = target: T3, MPDZ_5, O75970
T3 sequence (O75970 695-796, limits assumed, looked up): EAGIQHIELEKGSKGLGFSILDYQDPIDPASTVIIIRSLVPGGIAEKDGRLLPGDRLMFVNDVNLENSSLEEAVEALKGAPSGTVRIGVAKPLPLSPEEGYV

[4] = target: DLG4_1, P78352
DLG4_1, P78352, sequence (P78352 62-152): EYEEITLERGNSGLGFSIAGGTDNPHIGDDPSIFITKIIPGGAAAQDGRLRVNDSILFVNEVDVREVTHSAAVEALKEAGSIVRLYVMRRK

[5] = target: T4, GRIP1_5, Q9Y3R0
T4 sequence (Q9Y3R0 568-668, limits assumed, looked up): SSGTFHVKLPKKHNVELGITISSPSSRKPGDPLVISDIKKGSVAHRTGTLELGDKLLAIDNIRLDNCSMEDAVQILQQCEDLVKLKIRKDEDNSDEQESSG

[6] = target: PARD3_3, Q8TEW0
PARD3_3, Q8TEW0, sequence (Q8TEW0 582-685): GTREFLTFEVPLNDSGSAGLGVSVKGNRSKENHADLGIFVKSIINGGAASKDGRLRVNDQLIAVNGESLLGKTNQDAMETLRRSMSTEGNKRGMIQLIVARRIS

[7] = target: NOS1, P29475
NOS1, P29475, sequence (P29475 9-101): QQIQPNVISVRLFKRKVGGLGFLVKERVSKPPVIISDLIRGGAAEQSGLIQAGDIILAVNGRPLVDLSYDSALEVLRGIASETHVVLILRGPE

[8] = target: LDB3, O75112
LDB3, O75112, sequence (O75112 1-94): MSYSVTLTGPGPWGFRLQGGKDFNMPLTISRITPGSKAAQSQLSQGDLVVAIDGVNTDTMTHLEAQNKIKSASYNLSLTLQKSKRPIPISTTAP

[9] = target: T5, FRMPD1, Q5SYB0
T5 sequence (Q5SYB0 52-145, limits assumed, looked up): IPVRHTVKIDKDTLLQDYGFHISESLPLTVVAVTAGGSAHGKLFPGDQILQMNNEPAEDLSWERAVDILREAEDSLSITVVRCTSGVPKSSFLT

[10] = target: T6, NHERF3_1, Q5T2W1
T6 sequence (Q5T2W1 4-100, limits assumed, looked up): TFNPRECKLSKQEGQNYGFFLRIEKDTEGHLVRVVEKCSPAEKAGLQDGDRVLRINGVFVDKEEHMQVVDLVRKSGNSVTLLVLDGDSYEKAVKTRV

[11] = target: T7, APBA2_1, Q99767
T7 sequence (Q99767 563-664, limits assumed, looked up): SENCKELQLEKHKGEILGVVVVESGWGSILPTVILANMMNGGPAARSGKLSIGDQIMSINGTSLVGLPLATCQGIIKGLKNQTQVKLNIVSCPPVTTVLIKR

[12] = target: T8, PARD3B_1, Q8TEW8
T8 sequence (Q8TEW8 196-299, limits assumed, looked up): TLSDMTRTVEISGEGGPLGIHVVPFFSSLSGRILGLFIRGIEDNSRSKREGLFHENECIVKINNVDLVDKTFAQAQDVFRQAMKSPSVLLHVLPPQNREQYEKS

[13] = target: MAGI2_3, Q86UL8
MAGI2_3, Q86UL8, sequence (Q86UL8 600-682): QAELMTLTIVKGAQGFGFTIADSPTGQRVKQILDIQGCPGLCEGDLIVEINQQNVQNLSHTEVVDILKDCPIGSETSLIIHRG

[14] = target: T9, GRIP1_7, Q9Y3R0
T9 sequence (Q9Y3R0 999-1096, limits assumed, looked up): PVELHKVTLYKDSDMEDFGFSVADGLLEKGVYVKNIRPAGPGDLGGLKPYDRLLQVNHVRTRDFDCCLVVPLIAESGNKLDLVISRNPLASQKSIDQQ

[15] = target: T10, LIN7A, O14910
T10 sequence (O14910 103-200, limits assumed, looked up): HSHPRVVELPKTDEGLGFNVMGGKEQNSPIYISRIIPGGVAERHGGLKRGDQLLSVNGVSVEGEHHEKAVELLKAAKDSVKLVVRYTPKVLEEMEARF

[16] = target: T11, MPDZ_12, O75970
T11 sequence (O75970 1857-1958, limits assumed, looked up): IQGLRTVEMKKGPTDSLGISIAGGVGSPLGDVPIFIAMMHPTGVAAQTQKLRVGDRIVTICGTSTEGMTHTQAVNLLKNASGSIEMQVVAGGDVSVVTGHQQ

[17] = target: PDLIM1, O00151
PDLIM1, O00151, sequence (O00151 1-87): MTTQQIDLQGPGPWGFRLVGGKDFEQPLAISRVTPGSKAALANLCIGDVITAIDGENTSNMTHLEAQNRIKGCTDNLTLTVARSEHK

[18] = target: Inadl_3, Q8NI35
Inadl_3, Q8NI35, sequence (Q8NI35 359-469): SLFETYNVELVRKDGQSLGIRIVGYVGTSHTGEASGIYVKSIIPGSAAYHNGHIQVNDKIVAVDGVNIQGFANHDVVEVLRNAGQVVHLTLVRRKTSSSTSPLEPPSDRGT

[19] = target: MAGI2_6, Q86UL8
MAGI2_6, Q86UL8, sequence (Q86UL8 1141-1229): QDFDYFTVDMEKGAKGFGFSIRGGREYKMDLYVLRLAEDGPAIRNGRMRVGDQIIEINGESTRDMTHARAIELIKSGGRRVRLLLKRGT

[20] = target: FRMPD4, Q14CM0
FRMPD4, Q14CM0, sequence (Q14CM0 67-160): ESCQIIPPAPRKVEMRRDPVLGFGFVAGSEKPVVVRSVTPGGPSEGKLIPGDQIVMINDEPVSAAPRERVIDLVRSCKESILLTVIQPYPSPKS

[21] = target: IL16_4, Q14005
IL16_4, Q14005, sequence (Q14005 1229-1329): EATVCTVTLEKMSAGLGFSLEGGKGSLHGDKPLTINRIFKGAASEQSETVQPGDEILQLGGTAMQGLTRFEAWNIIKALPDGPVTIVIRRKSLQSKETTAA

[22] = target: GRID2IP_1, A4D2P6
GRID2IP_1, A4D2P6, sequence (A4D2P6 1-87): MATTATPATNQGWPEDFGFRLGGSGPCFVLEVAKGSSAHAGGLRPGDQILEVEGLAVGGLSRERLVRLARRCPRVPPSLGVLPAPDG

[23] = target: T12, PDZRN3_1, Q9UPQ7
T12 sequence (Q9UPQ7 244-349, limits assumed, looked up): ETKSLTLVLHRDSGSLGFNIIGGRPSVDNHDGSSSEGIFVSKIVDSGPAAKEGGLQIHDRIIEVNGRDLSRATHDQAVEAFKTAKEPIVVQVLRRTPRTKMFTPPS

[24] = target: T13, DLG3_1, Q92796
T13 sequence (Q92796 125-227, limits assumed, looked up): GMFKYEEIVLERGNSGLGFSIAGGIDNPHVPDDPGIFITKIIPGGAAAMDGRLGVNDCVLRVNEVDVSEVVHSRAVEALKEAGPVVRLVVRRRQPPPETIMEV

[25] = plain residues with an end cap or a label only (N-terminal biotin on a linker: ahx)
[26] = plain residues with an end cap or a label only (N-terminal biotin on a linker: ttds)

Measured: pKd

SDSSGQEYSL [KCTD3, Q9Y597]
4.69: [20]; [25]
3.8: [10]; [25]
4.58: [6]; [25]
3.61: [7]; [25]
below the threshold: [1]; [25] | [2]; [25] | [3]; [25] | [4]; [25] | [5]; [25] | [8]; [25] | [9]; [25] | [11]; [25] | [12]; [25] | [13]; [25] | [14]; [25] | [15]; [25] | [16]; [25] | [17]; [25] | [18]; [25] | [19]; [25] | [21]; [25] | [22]; [25] | [23]; [25] | [24]; [25]

ESLLLGPSNF [SHROOM4, Q9ULL8]
3.59: [18]; [25]
below the threshold: [1]; [25] | [2]; [25] | [3]; [25] | [4]; [25] | [5]; [25] | [6]; [25] | [7]; [25] | [8]; [25] | [9]; [25] | [10]; [25] | [11]; [25] | [12]; [25] | [13]; [25] | [14]; [25] | [15]; [25] | [16]; [25] | [17]; [25] | [19]; [25] | [20]; [25] | [21]; [25] | [22]; [25] | [23]; [25] | [24]; [25]

DKDPHSETAL [TMIGD1, Q6UXZ0]
3.74: [6]; [26]
below the threshold: [1]; [26] | [2]; [26] | [3]; [26] | [4]; [26] | [5]; [26] | [8]; [26] | [9]; [26] | [11]; [26] | [12]; [26] | [14]; [26] | [15]; [26] | [16]; [26] | [17]; [26] | [18]; [26] | [21]; [26] | [22]; [26] | [24]; [26]
3.79: [19]; [26]
5.42: [10]; [26]
3.52: [13]; [26]
4.64: [23]; [26]
3.86: [7]; [26]
4.34: [20]; [26]
